From the nanobody polyreactivity screen of Harvey et al. (2022)

Assay: yeast display, Sf9 membrane polyspecificity reagent, FACS + sequencing; frameworks hold sequencing errors
How it was run: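 Synthetic nanobody libraries on Saccharomyces cerevisiae BJ5465 were galactose-induced for 36–48 hours, stained 1 hour at 4 °C with 10% biotinylated, detergent-solubilized Sf9 membrane reagent and enriched on streptavidin microbeads. FACS then separated cells into low and high (top ~1%) gates by anti-HA (expression) and streptavidin (reagent binding) fluorescence. Genes were colony-PCR amplified, MiSeq 2 × 250 sequenced and CDR-length filtered. A clone's polyreactivity label is that of its gate of origin.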

Row | Sequence | polyreactivity (PSR sort gate)
1 | QVQLVESGGGLVQAGGSLRLSCAASGSIFFNYAMGWYRKAPGKERELVATITSGGSTYYADSVKGRFTISRDNAKNTVYLQMNSLKPEDTAVYYCAVDEYFAFDYWGQGTQVTVSS | low polyreactivity
2 | QVQLVESGGGLVQAGGSLRLSCAASGRTFGTYAMGWYRQAPGKERELVASITSGDSTNYADSVKGRFTISRDYAKNTVYLQMNSLKPEDTAVYYCNARGDVIVTPPKFSFNYEYWGQGTQVTVSS | low polyreactivity
3 | QVQLVESGGGLVQAGGSLRLSCAASGRNFDDYAMGWYRQAPGKERELVAAISDSGGTTYYADSVKGRFTISRDNAKNTVYLQMNSLKPEDTAVYYCAKRYYGPHYWGQGTQVTVSS | low polyreactivity
4 | QVQLVESGGGLVQAGGSLRLSCAASGRTFTKNAMGWYRQAPGKEREFVAAISKSTGSTYYADSVKGRFTISRDNAKNTVYLQMNSLKPEDTAVYYCNARYRFFIQARWGYIFGYWGQGTQVTVSS | high polyreactivity
5 | QVQLQESGGGLVQARGSLRLICAASGNISVTGFMGWYRQAPCKERELVASIGIGGTTYYADSVKGRFSISRDNAKNTVYLQMNSLKPEDTAVYYCAARYLYYAYSYWGQGTQVTVIS | low polyreactivity
6 | QVQLVESGGGLVQAGGSLRLSCAASGSLYFAYAMGWYRQAPGKEREFVAAISASGGSTSYADSVKGRFTISRDNAKNTVYLQMNSLKPEDTAVYYCATEHRVTTYDYWGQGTQVTVSS | low polyreactivity
7 | QVQLVESGGGLVQAGGSLRLSCAASGSIFGDNAMGWYRQAPGKERELVAAISIVGSTSYADSVKGRFTISRDNAKNTVYLQMNSLKPEDTAVYDCAAEIVRSDTGFDYWGQGTQVTVSS | low polyreactivity
8 | QVQLVESGGGLVQAGGSLRLSCAASGSIIRTYAMGWYRQAPGKERQLVATITFGGVSTYNADSVKGRFTISRDNAKNTVYLQMNSLKPEDSAVYYCAADVYTRFWRVYRFDYWGQGTQVTVSS | low polyreactivity
9 | QVQLVESGGGLVQAGGSLRLSCAASGSSFNGNAMGWYRQAPGKERELVAAISRKGGSTYYADSVKGRFTISRDNAKNTVYLQMNSLKPEDTAVYYCATDLTVYYSYYWMYWGQGTQVTVSS | low polyreactivity
10 | KVQLVESGGGLVQAGGSLRLSCAASGRTFLRYAMGWYRQAPGKERELVAAISTSGGSTYYADSVKGRFTISRDNAKNTVYLQMNSLKPEDTAVYYCAATSTSYTYTHSYGYWGQGTQVTVSS | low polyreactivity
11 | QVQLVESGGGLVQAGGSLRLSCAASGSTFYTYAMGWYRQAPGKERELVAAITRGGGRTYYADSVKGRFTISRDNAKNTVYLQMNSLKPEDTAVYYCAATVGYGHSYAGWYWVDYWGQGTQVTVSS | high polyreactivity
12 | QVQLVESGGGLVQAGGSLRLSCAASGRIFYSNAMGWYRQAPGKERELVAAISRSGVRTYYADSVKGRFTISRDNAKNTVYLQMNSLKPEDTAVYYCAADLYWWSYYYWGQGTQVTVSS | low polyreactivity
13 | QVLLQESGGGLVQAGVSLRLCCAASGYISGDQFMGWYRQAPGKEREFVAGIGNGTNTNYADSVKGRFTTSRDNAKNTVYLQMNSLKQEDTAVYYCAADPSDGSTLAYWGHGTQVTVSS | high polyreactivity
14 | QVQLVESGGGLVQAGGSLRLSCAASGRTFSVYAMGWYRQAPGKERELVARIRSGGSTYYADSVKGRFTISRDNAKNTVYLQMNRLKPEDTAVYYCATQHYGPSSNARGVYRYYYWGHGTQVTVSS | high polyreactivity
15 | QVQLVESGGGLVQAGGSLRLSCAASGRTFARYVMGWYRQAPGKERELVASISNSGGSTYYADSVKGRFTISRDNAKNTVYLQMNSLKPEDTAVYYCARRYYSYTTYRYDYWGQGTQVTVSS | high polyreactivity
16 | QVQLVESGGGLVQAGGSLRLSCAASGSTFARYTMGWYRQAPGKERELVATITNRGGSTYYADSVKGRFTISRDNAKNTVYLQMNSLKPEVTAVYYCNKRYYWGGYDYWGQGTQVTVSS | high polyreactivity
17 | QVQLVESGGGLVQAGGSLRLSCAASGRIFDDNAMGWYRQAPGKERELVAAITGPDDSTDYADSVKGRFTISRDNAKNTVYLQMNSLKPEDTAVYYCAKDAGYWYYWNGYWGQGTQVTVSS | high polyreactivity
18 | QVQLVESGGGLVQAGGSLRLSCAASGLTFHTNTMGWYRQAPGKERELVAAITWRDDSTYYADSVKGRFTISRDYAMNTVYLQMNSLKPEDTAVFYCAARGGAYLWYHYDYWGQGTQVTVSS | low polyreactivity
19 | QVQLVESGGGLVQAGGSLRLSCAASGFTFQFYAMGWYRQAPGKERELVARISESGSRTYYADSVKGRFTISRDNAKNTVYLQMNSLKPEDTAVYYCAADNPYLGRKFDYWGQGTQVTVSS | high polyreactivity
20 | QVQLVESGGGLVQAGGSLRLSCAASGSIFRRNAMGWYRQAPGKERELVAAINSGGTTYYADSVKGRFTNSRDNAKNTVYLQMNSLKPEVTAVYYCATVYRGWYYYWGQGTQVTVSS | high polyreactivity
21 | QVQLVESGGGLVQAGGSLRLSCAASGSTFVKYVMGWYRQAPGKERELVAAISRSSVRTSYADSVKGRFTISRDNAKNTVYLQMNSLKPEDTAVYYCAAEYQYGGTTFDYWGQGTQVTVSS | high polyreactivity
22 | QLQLVESGGGIVQAGGSLRLSCAPSGRIFFPNAMGSYRQAPGTERELVAGISIGGSTNYADSVKGRFTISRDNAKNTVYLQMNSLKPEDTAVYYWAARSPFGRWRDYWGQGTQVTVSS | low polyreactivity

Row | Sequence | polyreactivity (PSR sort gate)
23 | QVQLVESGGGLVQAGGSLRLSCAASGRTDVAKGMGRYRQAPGKEKEMVAAINDGDVTYYADSVKGRFTISRDNAKNTVYLQMNSLKPEDTAVYYCAADIIYGYEVYTYTSDYWGQGTQVTVSS | low polyreactivity
24 | QVQLVESGGGLVQAGGSLRLSCAASGRIFSSYAMGWYRQAPGKERELVAAISSRGGSTYYADSVKGRFTISRDNAKNTVYLQMNSLKPEDTAVNYCAKGLTALGDYWGQCTQVTVSS | high polyreactivity
25 | QVQLVESGGGLVQAGGSLSLSCAASGSNFKAYAMGWYRQAPGKERELVAAITKSGGRTYYADSVKGRFTISRDNAKNTVYLQMKSLNPEDTAVYSCAAVFRPDSSAYRYYYWGQGTQVTVST | high polyreactivity
26 | QVQLVDSGGGLVQAVGSLRLSCAASGRTLGAYAMGWYRQAPGKEREFVARITYGGRTFYADSVKGRFTISRDNAKNTVYLQMNSLKPEDTAVYYCATKLPYRWYDYWGQGTQVTVSS | high polyreactivity
27 | QVQLVESGGGLVQAGGRLRLSCAASGIIFGYYALGWYRQAPGKERELVAAISSGGTTSYADSVKGRFTISRDNAKNTDYLQMNSLKPEDTAVYYCAADYDAAWYKDGYYYWGQGTQVTVSS | low polyreactivity
28 | QVQLQESGRGLVQAGGSLRLSCAASGYISYFVGMGWYRQAPGKEREFVASIADGSNTYYADSVKGRFTISRDNAKNTVCLQRNSLKPEVTAVYYCAVEDSWTYRFDYWGEGTQVTVSS | high polyreactivity
29 | QVQLVESGGGLVQAGGSLRLSCAASGIIFASYAMGWYRPAPGKERELVATISRTGGSTRYADSVKGRFTISRDNAKNTVYLQMNSLKPEDTAVYYCAARNPAYDRRYGYWGQGTQVTVSS | high polyreactivity
30 | QVQLVESGGGLVQAGGSLRLSCAASGYISWAYVMGWYIQAPGKERELVAAISSGTSTYYADSVKGRFTISRDNAKNTVYLQMNSLKPEDTAVYYCAAYYYSYPTNGGYGYWGQGTQVTVSS | low polyreactivity
31 | QVQLVESGGGLVQAGGSLRLSCAASGFIFYKYAMGWYRQAPGKERELVARISISGGRTYYADSVKGRFTISRDNAKNTVYLQMNSLKPEDTAVYYCATSPWWYGYAAYGMDYWGQGTQVTVSS | low polyreactivity
32 | QVQLVESGGGLVQAGGSLRLSCAASGIILDEYAMGVYSQAPGKERELVAAITWIGGSTYADSVKGRFTISRDNAKNTVYLQMNRLKPEDTAVYYCAADYPSLFVCYGYGWYNYDYWGQGTQVTVSS | low polyreactivity
33 | QVQLVESGGGLVHAGGSLRLSCAASGRTFVYYAMGWNTQAPGKERELVAAISAGGGSTYYADSEKGRFTISRDNAKITVYFQMNSLNPEDTAVYYCAADGSPEIRDNYWGQGTQVTVSS | high polyreactivity
34 | QVQLVESGGGLVQAGGSLRLSCAASGGIFYLYAMGWYRQAPGKEREFVAAISSSGGSTNYADSVKGRFTISRDNAKNTVYLQMNSLKPEDTAVYYCAARWLPFLDLGKTYEYWGQGTQVTVSS | high polyreactivity
35 | QVQLEESGGGLVQGGGSLRLSCAASGSNFQDNAMGWYRQAPGKERELVAAITGRDASTYYADSVKGRFTISRDNAKNTVYLQLNCLKPEDTAVDYCYWGQGTQVTVSS | low polyreactivity
36 | QVQLVESGGGLVQAGGSLRLSCAASGSIFVINAMGWYRQAPGKERELVAAISYSGTGTYYADSVKGRFTISRDNAKNTVYLQMNSLKPEDTAVYYCAADYYYRYRIYDYWGQGTQVTVSS | low polyreactivity
37 | QVQHVESRGGLVQAGGSLRLSCAASGFTFYYNAMGWYRQAPVKERELVAIRFRGGNTYYADSVKGRFTISRDNAKNTVYLQMNSLKPEDTAVYYCNADDRGSTYVDFVYWGQGTQVTVSS | low polyreactivity
38 | QVQLVESGGGLVQAGGSLRLSCAASGRIFGTNAMGWYRQAPRKERELVADITSGGSTNYADSVKGRFTISRDNAKNTVYLQMNSLKPEDTAVYYCAADVIGDLRWYRDEYWGQVTQVTVSS | low polyreactivity
39 | QVQLVESGGGLVQAGGSLRLSCAASGLIFAVYAMGWYRQAPGKERELVAGISASAASTYYADSVKGRFTISRDNAKNTVYLQMNSLKPEDTAVYYCAADFYWFWTYGTLWYGYEYWGQGTQVTVSS | high polyreactivity
40 | QVQLVESGGGLVQAGGSLRLSCAASGGTFRLYTMGWYRQAPGKERELVAGISSSSGSTYYADSVKGRFTISRDNAKNTVYLQMNILKPEDTAVYYCAAYWPRSRYDYWGQGTQVTVSS | high polyreactivity
41 | QVQLVESGGGLVQAGGSLRLSCAASGIIFAWYAMGWYRQAPGKERELVAAITSRGGSRTFYADSVKGRFTISRDNAKNTVYLQMNSLKPEDTAVYYCAVVTRAHPEDYWGQGTQVTVSS | high polyreactivity
42 | QVQLVESGGGLVQAGGSLRLSCAASGSNFDDYGMGWYRQAPGKEREFVATITFGGGTYADSVKGRFTISRDNAKNTVYLQMTSLKPEDTAVYYCAKDWWTYRSSRPSDGTPARDDYWGQGTQVTVSS | low polyreactivity
43 | QVQLVESGGGLVQAGGSLRLSCAASGFTFDKNTMGWYRQAPGKERELVAAITRGGGSTYYADSVKGRFTISRDNAKNTVYLQMNSLKPEDTAVYYCAARYWTKRYRLLDYWGQGTQVTVSS | high polyreactivity
